Measurements from patent US20260070987A1.
Residue numbers refer to the chain shown, from its start. Names and notes keep the numbering of the source.

B1: equine IgG1 Q311A (antibody, part only; not given: variable domains, not shown: another chain or arm of the molecule)
constant: ASTTAPKVFALAPGCGTTSDSTVALGCLVSGYFPEPVKVSWNSGSLTSGVHTFPSVLQSSGFYSLSSMVTVPASTWTSETYICNVVHAASNFKVDKRIEPIPDNHQKVCDMSKCPKCPAPELLGGPSVFIFPPNPKDTLMITRTPEVTCVVVDVSQENPDVKFNWYMDGVEVRTATTRPKEEQFNSTYRVVSVLRIQHADWLSGKEFKCKVNNQALPQPIERTITKTKGRSQEPQVYVLAPHPDELSKSKVSVTCLVKDFYPPEINIEWQSNGQPELETKYSTTQAQQDSDGSYFLYSKLSVDRNRWQQGTTFTCGVMHEALHNHYTQKNVSKNPGK
B2: equine IgG1 D312W (antibody, part only; not given: variable domains, not shown: another chain or arm of the molecule)
constant: B1 constant with A199Q, D200W
B3: equine IgG1 D312A (antibody, part only; not given: variable domains, not shown: another chain or arm of the molecule)
constant: B1 constant with A199Q, D200A
B4: equine IgG1 M252F (antibody, part only; not given: variable domains, not shown: another chain or arm of the molecule)
constant: B1 constant with M140F, A199Q
B5: equine IgG1 Q311F (antibody, part only; not given: variable domains, not shown: another chain or arm of the molecule)
constant: B1 constant with A199F
B6: equine IgG1 Q311H (antibody, part only; not given: variable domains, not shown: another chain or arm of the molecule)
constant: B1 constant with A199H
B7: equine IgG1 Q311C (antibody, part only; not given: variable domains, not shown: another chain or arm of the molecule)
constant: B1 constant with A199C
B8: equine IgG1 Q311E (antibody, part only; not given: variable domains, not shown: another chain or arm of the molecule)
constant: B1 constant with A199E
B9: equine IgG1 D312C (antibody, part only; not given: variable domains, not shown: another chain or arm of the molecule)
constant: B1 constant with A199Q, D200C
B10: equine IgG1 Q311G (antibody, part only; not given: variable domains, not shown: another chain or arm of the molecule)
constant: B1 constant with A199G
B11: equine IgG1 Q311N (antibody, part only; not given: Variable domains, not shown: another chain or arm of the molecule)
constant: B1 constant with A199N
B12: equine IgG1 Q311D (antibody, part only; not given: variable domains, not shown: another chain or arm of the molecule)
constant: B1 constant with A199D
B13: equine IgG1 Q311T (antibody, part only; not given: variable domains, not shown: another chain or arm of the molecule)
constant: B1 constant with A199T
B14: equine IgG1 Q311W (antibody, part only; not given: variable domains, not shown: another chain or arm of the molecule)
constant: B1 constant with A199W
B15: equine IgG1 Q311I (antibody, part only; not given: variable domains, not shown: another chain or arm of the molecule)
constant: B1 constant with A199I
B16: equine IgG1 M252K (antibody, part only; not given: variable domains, not shown: another chain or arm of the molecule)
constant: B1 constant with M140K, A199Q
B17: equine IgG1 Q311R (antibody, part only; not given: variable domains, not shown: another chain or arm of the molecule)
constant: B1 constant with A199R
B18: equine IgG1 Q311S (antibody, part only; not given: variable domains, not shown: another chain or arm of the molecule)
constant: B1 constant with A199S
B19: equine IgG1 D312N (antibody, part only; not given: variable domains, not shown: another chain or arm of the molecule)
constant: B1 constant with A199Q, D200N
B20: equine IgG1 D312M (antibody, part only; not given: Variable domains, not shown: another chain or arm of the molecule)
constant: B1 constant with A199Q, D200M
B21: equine IgG1 Q311L (antibody, part only; not given: Variable domains, not shown: another chain or arm of the molecule)
constant: B1 constant with A199L
B22: equine IgG1 D312F (antibody, part only; not given: Variable domains, not shown: another chain or arm of the molecule)
constant: B1 constant with A199Q, D200F
B23: equine IgG1 D312P (antibody, part only; not given: variable domains, not shown: another chain or arm of the molecule)
constant: B1 constant with A199Q, D200P
B24: equine IgG1 D312Y (antibody, part only; not given: variable domains, not shown: another chain or arm of the molecule)
constant: B1 constant with A199Q, D200Y
B25: equine IgG1 Q311V (antibody, part only; not given: variable domains, not shown: another chain or arm of the molecule)
constant: B1 constant with A199V
B26: equine IgG1 D312V (antibody, part only; not given: Variable domains, not shown: another chain or arm of the molecule)
constant: B1 constant with A199Q, D200V
B27: equine IgG1 D312T (antibody, part only; not given: Variable domains, not shown: another chain or arm of the molecule)
constant: B1 constant with A199Q, D200T
B28: equine IgG1 D312Q (antibody, part only; not given: variable domains, not shown: another chain or arm of the molecule)
constant: B1 constant with A199Q, D200Q
B29: equine IgG1 Q311M (antibody, part only; not given: variable domains, not shown: another chain or arm of the molecule)
constant: B1 constant with A199M
B30: equine IgG1 D312L (antibody, part only; not given: variable domains, not shown: another chain or arm of the molecule)
constant: B1 constant with A199Q, D200L
B31: equine IgG1 Q311K (antibody, part only; not given: variable domains, not shown: another chain or arm of the molecule)
constant: B1 constant with A199K
B32: equine IgG1 D312K (antibody, part only; not given: variable domains, not shown: another chain or arm of the molecule)
constant: B1 constant with A199Q, D200K
B33: equine IgG1 D312G (antibody, part only; not given: variable domains, not shown: another chain or arm of the molecule)
constant: B1 constant with A199Q, D200G
B34: equine IgG1 D312H (antibody, part only; not given: variable domains, not shown: another chain or arm of the molecule)
constant: B1 constant with A199Q, D200H
B35: equine IgG1 M252L (antibody, part only; not given: variable domains, not shown: another chain or arm of the molecule)
constant: B1 constant with M140L, A199Q
B36: equine IgG1 M252W (antibody, part only; not given: variable domains, not shown: another chain or arm of the molecule)
constant: B1 constant with M140W, A199Q
B37: equine IgG1 D312E (antibody, part only; not given: variable domains, not shown: another chain or arm of the molecule)
constant: B1 constant with A199Q, D200E
B38: equine IgG1 Q311Y (antibody, part only; not given: Variable domains, not shown: another chain or arm of the molecule)
constant: B1 constant with A199Y
B39: equine IgG1 D312S (antibody, part only; not given: variable domains, not shown: another chain or arm of the molecule)
constant: B1 constant with A199Q, D200S
B40: equine IgG4 T286F (antibody, part only; not given: variable domains, not shown: another chain or arm of the molecule)
constant: ASTTAPKVFPLASHSAATSGSTVALGCLVSSYFPEPVTVSWNSGALTSGVHTFPSVLQSSGLYSLSSMVTVPASSLKSQTYICNVAHPASSTKVDKKIVIKECNGGCPAECLQVGPSVFIFPPKPKDVLMISRTPTVTCVVVDVGHDFPDVQFNWYVDGVETHFATTEPKQEQFNSTYRVVSVLPIQHKDWLSGKEFKCKVNNKALPAPVERTISKPTGQPREPQVYVLAPHRDELSKNKVSVTCLVKDFYPTDIDIEWKSNGQPEPETKYSTTPAQLDSDGSYFLYSKLTVETNRWQQGTTFTCAVMHEALHNHYTEKSVSKSPGK
B41: equine IgG4 T286P (antibody, part only; not given: variable domains, not shown: another chain or arm of the molecule)
constant: B40 constant with F164P
B42: equine IgG4 T286Y (antibody, part only; not given: variable domains, not shown: another chain or arm of the molecule)
constant: B40 constant with F164Y
B43: equine IgG4 T286R (antibody, part only; not given: variable domains, not shown: another chain or arm of the molecule)
constant: B40 constant with F164R
B44: equine IgG4 T286S (antibody, part only; not given: Variable domains, not shown: another chain or arm of the molecule)
constant: B40 constant with F164S
B45: equine IgG4 T286K (antibody, part only; not given: variable domains, not shown: another chain or arm of the molecule)
constant: B40 constant with F164K
B46: equine IgG4 T286H (antibody, part only; not given: variable domains, not shown: another chain or arm of the molecule)
constant: B40 constant with F164H
B47: equine IgG4 T286Q (antibody, part only; not given: Variable domains, not shown: another chain or arm of the molecule)
constant: B40 constant with F164Q
B48: equine IgG4 T286M (antibody, part only; not given: variable domains, not shown: another chain or arm of the molecule)
constant: B40 constant with F164M
B49: equine IgG4 T286I (antibody, part only; not given: variable domains, not shown: another chain or arm of the molecule)
constant: B40 constant with F164I
B50: equine IgG4 T286G (antibody, part only; not given: variable domains, not shown: another chain or arm of the molecule)
constant: B40 constant with F164G
B51: equine IgG4 T286L (antibody, part only; not given: variable domains, not shown: another chain or arm of the molecule)
constant: B40 constant with F164L
B52: equine IgG4 T286W (antibody, part only; not given: Variable domains, not shown: another chain or arm of the molecule)
constant: B40 constant with F164W
B53: equine IgG4 T286V (antibody, part only; not given: variable domains, not shown: another chain or arm of the molecule)
constant: B40 constant with F164V

Target: equine FcRn (large alpha subunit p51) / equine beta-2-microglobulin complex, biotinylated (equine) (UniProt P30441)
Sequence of UniProt P30441 (P30441 21-118, one chain of several): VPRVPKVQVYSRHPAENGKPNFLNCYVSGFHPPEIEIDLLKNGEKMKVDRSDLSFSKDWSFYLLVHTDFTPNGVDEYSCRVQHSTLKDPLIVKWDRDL
Assay: SPR (Biacore), pH 6

Row | Binder | Kd [nM]
1 | B1 | 21
2 | B2 | 21.6
3 | B3 | 9.86
4 | B4 | 47.5
5 | B5 | 20.3
6 | B6 | 24.3
7 | B7 | 15.7
8 | B8 | 67.3
9 | B9 | 21
10 | B10 | 20.1
11 | B11 | 24.3
12 | B12 | 54.6
13 | B13 | 17.4
14 | B14 | 21.2
15 | B15 | 12.6
16 | B16 | 36.7
17 | B17 | 10.1
18 | B18 | 24.4
19 | B19 | 22.3
20 | B20 | 23.4
21 | B21 | 16.1
22 | B22 | 17.8
23 | B23 | 8.88
24 | B24 | 17.1
25 | B25 | 16.3
26 | B26 | 8.32
27 | B27 | 20.3

Row | Binder | Kd [nM]
28 | B28 | 46
29 | B29 | 12
30 | B30 | 24.6
31 | B31 | 14.7
32 | B32 | 15.8
33 | B33 | 16.2
34 | B34 | 17.1
35 | B35 | 101
36 | B36 | 26.6
37 | B37 | 25.2
38 | B38 | 21.2
39 | B39 | 16.7
40 | B40 | 22.2
41 | B41 | 5.2
42 | B42 | 26.9
43 | B43 | 21.4
44 | B44 | 24.1
45 | B45 | 24.7
46 | B46 | 27.1
47 | B47 | 24.5
48 | B48 | 20.3
49 | B49 | 13.3
50 | B50 | 23.3
51 | B51 | 17.5
52 | B52 | 45
53 | B53 | 15.3
